Laboratory results reported in article PMC12723161.

Assays:
[1] = target: CraCRY Y373R (Chlamydomonas reinhardtii); assay: SEC; time-lapse dimerization under blue light (450 nm, 100 W/m^2); 6 mg/mL in HEPES pH 7.4, 150 mM NaCl; Superdex 200 Increase 10/300, room temperature, in darkness; dimer fraction from peak areas
[2] = target: GST-fused ROC15 (GARP), the active domain of Rhythm Of Clock 15; assay: GST pull-down, SDS-PAGE band intensity ratio; settings: absence of reducing agents, read off a plot
[3] = target: Chlamydomonas reinhardtii animal-like cryptochrome (CraCRY), wild type (Chlamydomonas reinhardtii); assay: SEC; dimer peak collected from SEC, kept in the dark, second round of SEC
[4] = target: Chlamydomonas reinhardtii animal-like cryptochrome (CraCRY), wild type (Chlamydomonas reinhardtii); assay: SEC; concentration series, blue light 4 min; HEPES pH 7.4, 150 mM NaCl; Superdex 200 Increase 10/300, room temperature, in darkness; dimer fraction from peak areas
[5] = target: CraCRY Y373E (Chlamydomonas reinhardtii); assay: SEC; time-lapse dimerization under blue light (450 nm, 100 W/m^2); 6 mg/mL in HEPES pH 7.4, 150 mM NaCl; Superdex 200 Increase 10/300, room temperature, in darkness; dimer fraction from peak areas
[6] = lit (blue light), parent: est. 0.15

| Substance | response ([2]; dark, parent: est. 0.03) | response [2, 6] | also measured |
| --- | --- | --- | --- |
| CraCRY Y373R (natural protein) |  |  | dimer fraction (percent of elution peak area) [1]: 50% |
| Chlamydomonas reinhardtii animal-like cryptochrome (CraCRY), wild type Y373W | 0.045 | 0.85 |  |
| Chlamydomonas reinhardtii animal-like cryptochrome (CraCRY), wild type (natural protein) |  |  | stoichiometry N [3]: 2; dimer fraction (percent of elution peak area) [4]: 20% |
| CraCRY Y373E (natural protein) |  |  | dimer fraction (percent of elution peak area) [5]: 50% |
| Chlamydomonas reinhardtii animal-like cryptochrome (CraCRY), wild type Y373W; N395C | 0.05 | 0.58 |  |
